B1: CRISPR-associated endonuclease Cas1 (Escherichia coli (strain K12)), Q46896 (parent)
chain: MTWLPLNPIPLKDRVSMIFLQYGQIDVIDGAFVLIDKTGIRTHIPVGSVACIMLEPGTRVSHAAVRLAAQVGTLLVWVGEAGVRVYASGQPGGARSDKLLYQAKLALDEDLRLKVVRKMFELRFGEPAPARRSVEQLRGIEGSRVRATYALLAKQYGVTWNGRRYDPKDWEKGDTINQCISAATSCLYGVTEAAILAAGYAPAIGFVHTGKPLSFVYDIADIIKFDTVVPKAFEIARRNPGEPDREVRLACRDIFRSSKTLAKLIPLIEDVLAAGEIQPPAPPEDAQPVAIPLPVSLGDAGHRSS
partner: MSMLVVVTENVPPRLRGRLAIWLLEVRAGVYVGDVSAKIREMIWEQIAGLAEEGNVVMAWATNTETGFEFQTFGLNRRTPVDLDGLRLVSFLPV

Variants of: B1
Conditions: with cas2_ecoli ygbF
In the case of MTWLPLNPIPLKDRVSMIFLQYGQIDVIDGAFVLIDKTGIRTHIPVGSVACIMLEPGTRVSHAAVRLAAQVGTLLVWVGEAGVRVYASGQPGGARSDKLLYQAKLALDEDLRLKVVRKMFELRFGEPAPARRSVEQLRGIEGSRVRATYALLAKQYGVTWNGRRYDPKDWEKGDTINQCISAATSCLYGVTEAAILAAGYAPAIGFVHTGKPLSFVYDIADIIKFDTVVPKAFEIARRNPGEPDREVRLACEDIFRSSKTLAKLIPLIEDVLAAGEIQPPAPPEDAQPVAIPLPVSLGDAGHRSS [R252E], the “effect of a mutation on the interaction” value is reported as “disrupting interaction strength”.

— IntAct's records for PubMed 24793649
